Experimental data as given in the supplement of paper PMC7877785.
± gives the uncertainty stated by the source.

Assay: self-splicing fitness, log relative to wild type (ln ratio); higher = more splicing; Tetrahymena group I intron in knt gene, E. coli kanamycin selection, DiMSum; sequences stand for … in CUCUCU…GGAGGGAAAAGUUAUCAGGCAUGCACCUGGUAGCUAGUCUUUAAACCAAUAGAUUGCAUCGGUUUAAAAGGCAAGACCGUCAAAUUGCGGGAAAGGGGUCAACAGCCGUUCAGUACCAAGUCUCAGGGGAAACUUUGAGAUGGCCUUGCAAAGGGUAUGGUAAUAAGCUGACGGACAUGGUCCUAACCACGCAGCCAAGUCCUAAGUCAACAGAUCUUCUGUUGAUAUGGAUGCAGUUCACAGACUAAAUGUCGGUCGGGGAAGAUGUAUUCUUCUCAUAAGAUAUAGUCGGACCUCUCCUUAAUGGGAGCUAGCGGAUGAAGUGAUGCAACACUGGAGCCGCUGGGAACUAAUUUGUAUGCGAAAGUAUAUUGAUUAGUUUUGGAGUACUCGUGGUCG
Summary of the method: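 DiMSum derived fitness as the error-weighted combination of fold changes across replicates, kanamycin versus no kanamycin, normalised to wild type. E. coli BL21(DE3) held the library, which randomised all eight P1ex-region intron nucleotides within the knt kanamycin-resistance gene on pET-22b(+). Six replicate transformations grew overnight at 37°C or 30°C on LB agar with or without 25 μg/mL kanamycin, also containing 100 μg/mL carbenicillin, 50 μM IPTG and 0.2% rhamnose, and pooled colonies were amplicon-sequenced on an Illumina HiSeq 2500.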

Row | Sequence | self-splicing fitness (ln) (30 °C) | self-splicing fitness (ln) (37 °C)
1 | CUGAAGCAAUAUUACGGUUG | -0.0856 ± 0.068 | 0.139 ± 0.096
2 | CUUGAGCAAUAUUACGGAUU | -4.83 ± 0.45 | -3.23 ± 0.29
3 | AUAAAGCAAUAUUACGUCUA | 0.308 ± 0.078 | 0.497 ± 0.099
4 | GAAGAGCAAUAUUACGCGCA | -1.11 ± 0.2 | -1.35 ± 0.14
5 | AUUUAGCAAUAUUACGCCUU | -0.196 ± 0.092 | -0.0916 ± 0.12
6 | CGUUAGCAAUAUUACGGUAC | -2.98 ± 0.24 | -2.96 ± 0.38
7 | CACCAGCAAUAUUACGGCGG | -0.993 ± 0.065 | -0.567 ± 0.079
8 | GGCUAGCAAUAUUACGCUGG | -4.2 ± 0.42 | 
9 | UACGAGCAAUAUUACGAGUC | -2.81 ± 0.38 | -3.01 ± 0.43
10 | UCAGAGCAAUAUUACGUGGC | -3.85 ± 0.25 | -2.32 ± 0.26
11 | AUGCAGCAAUAUUACGGGUA | -1.56 ± 0.13 | -1.12 ± 0.14
12 | GCACAGCAAUAUUACGUUCC | -1.85 ± 0.078 | -0.808 ± 0.11
13 | CAAUAGCAAUAUUACGAUUG | -3.32 ± 0.17 | -1.9 ± 0.16
14 | CCCGAGCAAUAUUACGUAUU | -3.8 ± 0.17 | -3.48 ± 0.24
15 | UCUCAGCAAUAUUACGUUUU | -3.4 ± 0.15 | -3.25 ± 0.21
16 | AGAAAGCAAUAUUACGAGAC | -2.65 ± 0.3 | -2.13 ± 0.47
17 | AACAAGCAAUAUUACGUAAC | -3.29 ± 0.12 | -2.33 ± 0.17
18 | ACAUAGCAAUAUUACGCGGU | -3.36 ± 0.17 | -2.86 ± 0.26
19 | CGAGAGCAAUAUUACGCCUC | -4.16 ± 0.39 | -1.27 ± 0.18
20 | AGCAAGCAAUAUUACGGCCU | -0.383 ± 0.094 | 0.167 ± 0.13
21 | CAUCAGCAAUAUUACGACUA | -1.26 ± 0.13 | -0.0399 ± 0.13
22 | CCUAAGCAAUAUUACGCUCG |  | -2.15 ± 0.3
23 | CCCAAGCAAUAUUACGCGUU | -4.28 ± 0.18 | -1.74 ± 0.12
24 | UGAUAGCAAUAUUACGACGC |  | -3.55 ± 0.29
25 | GUUCAGCAAUAUUACGAUCU | -0.337 ± 0.095 | 0.0505 ± 0.12

Row | Sequence | self-splicing fitness (ln) (30 °C) | self-splicing fitness (ln) (37 °C)
26 | GCUCAGCAAUAUUACGUCAA | -1.84 ± 0.16 | -1.77 ± 0.22
27 | GGGUAGCAAUAUUACGAAUG | -2.18 ± 0.25 | -1.32 ± 0.4
28 | AGACAGCAAUAUUACGUGGG | -3.37 ± 0.13 | -2.37 ± 0.13
29 | ACAGAGCAAUAUUACGCAGG | -4.02 ± 0.18 | -2.59 ± 0.17
30 | AGACAGCAAUAUUACGUCUG | -1.6 ± 0.076 | -0.662 ± 0.08
31 | UUGGAGCAAUAUUACGCACA | -0.871 ± 0.32 | 
32 | CGCCAGCAAUAUUACGCUGU | -3.38 ± 0.29 | -2.69 ± 0.39
33 | UCUCAGCAAUAUUACGGCUU | -3.42 ± 0.2 | -3.05 ± 0.18
34 | UCAUAGCAAUAUUACGGGAA | -1.35 ± 0.19 | -1.1 ± 0.16
35 | CUGCAGCAAUAUUACGAGAC | -2.19 ± 0.16 | -1.31 ± 0.16
36 | ACUAAGCAAUAUUACGAAAC | -3.55 ± 0.12 | -2.3 ± 0.16
37 | AUCCAGCAAUAUUACGGCUU | -0.0325 ± 0.076 | 0.438 ± 0.1
38 | CCACAGCAAUAUUACGCAUU | -3.53 ± 0.17 | -3.11 ± 0.16
39 | CACAAGCAAUAUUACGUCAC | -3.24 ± 0.19 | -2.62 ± 0.22
40 | CCUCAGCAAUAUUACGUACU | -3.42 ± 0.22 | -1.98 ± 0.22
41 | GGUUAGCAAUAUUACGUUUU | -1.03 ± 0.055 | -0.945 ± 0.083
42 | CCCCAGCAAUAUUACGACUA | -2.66 ± 0.17 | -2.93 ± 0.28
43 | UCAGAGCAAUAUUACGUUGA | -2.33 ± 0.12 | -1.54 ± 0.14
44 | UUAUAGCAAUAUUACGAUCA | -0.672 ± 0.15 | -0.403 ± 0.17
45 | GCCUAGCAAUAUUACGUUUU | -1.7 ± 0.097 | -0.614 ± 0.12
46 | CAGCAGCAAUAUUACGCUCA | -0.65 ± 0.085 | -0.0891 ± 0.11
47 | UCGGAGCAAUAUUACGCGUA | -1.73 ± 0.26 | -1.38 ± 0.21
48 | CACAAGCAAUAUUACGAACG | -0.561 ± 0.055 | 0.286 ± 0.079
49 | GUAUAGCAAUAUUACGGAUU | -2.58 ± 0.14 | -0.56 ± 0.13
50 | AUAAAGCAAUAUUACGGAAA | -1.11 ± 0.11 | -1.12 ± 0.18

Row | Sequence | self-splicing fitness (ln) (30 °C) | self-splicing fitness (ln) (37 °C)
51 | GGACAGCAAUAUUACGGGCA | -0.731 ± 0.18 | -0.477 ± 0.17
52 | GAGUAGCAAUAUUACGCCCU | -0.812 ± 0.24 | -0.124 ± 0.23
53 | UCACAGCAAUAUUACGUGAU | -3.64 ± 0.12 | -2.76 ± 0.15
54 | AGCCAGCAAUAUUACGCCAG | -3.96 ± 0.27 | -2.23 ± 0.16
55 | GCAUAGCAAUAUUACGCAAA | -1.88 ± 0.39 | -0.928 ± 0.24
56 | AGUUAGCAAUAUUACGUAGC | -3.86 ± 0.26 | -0.803 ± 0.14
57 | ACUUAGCAAUAUUACGUCCU | -0.527 ± 0.085 | -0.132 ± 0.13
58 | GCGGAGCAAUAUUACGUUAU | -3.7 ± 0.19 | -2.81 ± 0.15
59 | AUGAAGCAAUAUUACGGACG | -0.554 ± 0.066 | 0.536 ± 0.091
60 | CUCGAGCAAUAUUACGCACG | -1.6 ± 0.23 | 
61 | GAAUAGCAAUAUUACGAUGA | -1.2 ± 0.083 | -0.62 ± 0.093
62 | CCUCAGCAAUAUUACGUGCG | -2.51 ± 0.11 | -1.71 ± 0.12
63 | GACUAGCAAUAUUACGUCUU | -0.971 ± 0.099 | -1.39 ± 0.15
64 | UAUCAGCAAUAUUACGGGAC | -3.15 ± 0.22 | -2.26 ± 0.25
65 | CAUCAGCAAUAUUACGAGGA | -3.13 ± 0.23 | -2.6 ± 0.19
66 | CUACAGCAAUAUUACGCUGU | -3.9 ± 0.2 | -2.8 ± 0.22
67 | UGUAAGCAAUAUUACGUGGC | -4.03 ± 0.4 | -2.26 ± 0.37
68 | GCAAAGCAAUAUUACGCCAA | -2.08 ± 0.48 | -2.95 ± 0.31
69 | GACAAGCAAUAUUACGCGUC | -4.02 ± 0.22 | -3.45 ± 0.39
70 | UGCGAGCAAUAUUACGUGUA | -2.83 ± 0.11 | -1.01 ± 0.1
71 | UAUGAGCAAUAUUACGUUAC | -3.37 ± 0.36 | -2.48 ± 0.23
72 | GGACAGCAAUAUUACGGUAG | -1.7 ± 0.061 | -1.32 ± 0.073
73 | AGAGAGCAAUAUUACGCACA | -3.27 ± 0.48 | 
74 | AUCGAGCAAUAUUACGGUCA | -2.98 ± 0.18 | -2.07 ± 0.18
75 | AGAUAGCAAUAUUACGAACC | 0.553 ± 0.29 | -0.637 ± 0.27

Row | Sequence | self-splicing fitness (ln) (30 °C) | self-splicing fitness (ln) (37 °C)
76 | AAACAGCAAUAUUACGGUGC | -2.97 ± 0.11 | -3.4 ± 0.17
77 | AAGAAGCAAUAUUACGAUCA | -0.455 ± 0.08 | -0.229 ± 0.099
78 | CUGAAGCAAUAUUACGCCGG | -1.86 ± 0.25 | -1.19 ± 0.25
79 | AUCGAGCAAUAUUACGUCUA | -3.26 ± 0.32 | -0.994 ± 0.13
80 | CACGAGCAAUAUUACGUAGC | -2.94 ± 0.24 | -3.31 ± 0.3
81 | GAUAAGCAAUAUUACGUCUG | -2.51 ± 0.24 | -1.57 ± 0.25
82 | AAUUAGCAAUAUUACGCAGA | -1.71 ± 0.33 | -1.24 ± 0.31
83 | GACUAGCAAUAUUACGUUCC | -3.69 ± 0.3 | -2.17 ± 0.23
84 | CGCUAGCAAUAUUACGGCAU | -1.89 ± 0.093 | -0.622 ± 0.083
85 | ACUAAGCAAUAUUACGUACU | 0.135 ± 0.084 | 0.635 ± 0.12
86 | AGCCAGCAAUAUUACGUCAG | -3.58 ± 0.17 | -2.77 ± 0.23
87 | GGUUAGCAAUAUUACGCUGC | -1.38 ± 0.26 | 
88 | GUAUAGCAAUAUUACGGCGG |  | -2.1 ± 0.38
89 | AUAAAGCAAUAUUACGCAAC | -1.38 ± 0.13 | -1.34 ± 0.21
90 | AUACAGCAAUAUUACGUCGG | -2.35 ± 0.13 | -2.13 ± 0.17
91 | CACGAGCAAUAUUACGGGCG | -0.98 ± 0.11 | -1.14 ± 0.15
92 | ACCUAGCAAUAUUACGUCCA | -1.53 ± 0.098 | -0.615 ± 0.094
93 | ACAGAGCAAUAUUACGACAA |  | -2.31 ± 0.21
94 | GUCGAGCAAUAUUACGCGGU |  | -1.94 ± 0.32
95 | GUGCAGCAAUAUUACGAAUA | -1.79 ± 0.14 | -1.07 ± 0.17
96 | GGUUAGCAAUAUUACGUGGA | -2.72 ± 0.2 | -1.08 ± 0.14
97 | CACGAGCAAUAUUACGCUUU | -3.71 ± 0.22 | -2.89 ± 0.2
98 | AACCAGCAAUAUUACGGCUU | -0.621 ± 0.056 | 0.209 ± 0.082
